Experiments:
AXL = AXL (Homo sapiens, UniProt P30530); test: Competition with Gas6 for binding to AXL
PAXF1657 tumors = test: PAXF1657 pancreas cancer PDX model; format: in vivo, NMRI nu/nu mice
Procedure: Human pancreas tumor tissue was subcutaneously implanted in the left flank of 5-7 weeks old female NMRI nu/nu mice. […] At day of randomization (day 0), the 3 ADCs were dosed intravenously (i.v.) at either 4 mg/kg or 2 mg/kg, and the control group received a single dose of IgG1-b12 (4 mg/kg). Tumor volumes (mm^3) were monitored twice weekly and were calculated from caliper (PLEXX) measurements as: 0.52×(length)×(width)^2.

[1] = test system: LCLC-103H xenograft tumors; test: Therapeutic treatment of SC LCLC-103H tumor xenografts (Example 3); format: in vivo, SCID mice
Procedure: The in vivo efficacy of MMAE-conjugated anti-AXL antibodies was determined in established subcutaneous (SC) LCLC-103H xenograft tumors in SCID mice. 5×10^6 LCLC-103H (large cell lung carcinoma) tumor cells (obtained from Leibniz-Institut DSMZ-Deutsche Sammlung von Mikroorganismen and Zellkulturen GmbH (DSMZ)) in 200 μL PBS were injected subcutaneously in the right flank of female SCID mice. Starting 14-21 days after tumor cell inoculation, when the average tumor size was >100-200 mm^3 and distinct tumor growth was observed, a single injection with 1 mg/kg (20 μg/mouse) IgG1-AXL-vcMMAE antibodies or control (unconjugated IgG1-b12) was given intraperitoneally (100 μL/mouse). Tumor volume was determined at least two times per week. Tumor volumes (mm^3) were calculated from caliper (PLEXX) measurements as: 0.52×(length)×(width)^2.

LCLC-103H cells = test: Cytotoxicity assay (CellTiter-Glo) in LCLC-103H cells; format: cell-based, human; settings: 5 days incubation
Procedure: (§1) LCLC-103H cells (human large cell lung cancer) and A431 cells (DMSZ, Braunschweig, Germany) were cultured in RPMI 1640 with L-Glutamine (Cambrex; cat.no. BE12-115F) supplemented with 10% (vol/vol) heat inactivated Cosmic Calf Serum (Perbio; cat.no. SH30087.03), 2 mM L-glutamine (Cambrex; cat.no. US17-905C), 50 IU/mL penicillin, and 50 µg/mL streptomycin (Cambrex; cat.no. DE17-603E). MDA-MB231 cells were cultured in DMEM with high glucose and HEPES (Lonza #BE12-709F), Donor Bovine Serum with Iron (Life Technologies #10371-029), 2 mM L-glutamine (Lonza #BE17 -605E), 1 mM Sodium Pyruvate (Lonza #BE13-115E), and MEM Non-Essential Amino Acids Solution (Life Technologies #11140). The cell lines were maintained at 37° C. in a 5% (vol/vol) CO2 humidified incubator. LCLC-103H, A431 and MDA-MB231 cells were cultured to near confluency, after which cells were trypsinized, resuspended in culture medium and passed through a cell strainer (BD Falcon, cat.no. 352340) to obtain a single cell suspension. […]
(§2) Subsequently, 180 μL per well was transferred to white 96-well Optiplate™ plates (PerkinElmer, Waltham, Mass.; cat.no. 6005299), which were incubated for 30 min at room temperature. Finally, luminescence was measured on an EnVision multiplate reader (Envision, Perkin Elmer).

LCLC-103H tumors = test: LCLC-103H xenograft model (low Gas6, Example 5); format: in vivo; settings: 3 mg/kg i.p., SCID mice
Procedure: (§3) Tumor induction was performed by subcutaneous injection of 5×10^6 A431 or LCLC-103H tumor cells (both obtained from Leibniz-Institut—Deutsche Sammlung von Mikroorganismen and Zellkulturen GmbH (DSMZ)) in 200 μL PBS in the right flank of female SCID mice. Treatment was started 14-21 days after tumor cell inoculation, when the average tumor size was >100-200 mm^3 and distinct tumor growth was observed. Mice received a single injection or a total of 4 biweekly intraperitoneal injections with IgG1-AXL-vcMMAE ADCs or control antibody (unconjugated IgG1-b12), as indicated. Tumor volume was determined at least two times per week. Tumor volumes (mm^3) were calculated from caliper (PLEXX) measurements as: 0.52×(length)×(width)^2.

A431 tumors = test: A431 xenograft model (high Gas6); format: in vivo; settings: 3 mg/kg i.p., SCID mice
Procedure: as §3

MDA-MB231 cells = test: Cytotoxicity assay (CellTiter-Glo) in MDA-MB231 cells; format: cell-based; settings: MDA-MB231 (n = 2), 5 days incubation
Procedure: as §1, §2

[2] = Pre-clinical PK studies in cynomolgus monkey; format: in vivo
From the text: Data from 5 in-vivo pre-clinical studies, shown in the Table below, were provided, containing measurements of the plasma ADC level, plasma IgG level, and plasma MMAE level (only measured in study 5).
All studies appeared to show a significant drop in plasma concentrations of ADC/IgG after the 2nd dose when compared to the first dose, which corresponded with an ADA response. As this is a fully human antibody, ADA response are only very rarely expected to occur in humans. Therefore, only data after the first dose were included in the data preparation and subsequently modelled.

A431 cells = test: Cytotoxicity assay (CellTiter-Glo) in A431 cells; format: cell-based; settings: A431 (n = 3), 5 days incubation
Procedure: as §1, §2

B1: IgG1-AXL-148-vcMMAE: anti-AXL antibody 148 (VH SEQ ID No 5, VL SEQ ID No 6), Ig2 binder, conjugated to vcMMAE (conjugate)
VH: EVQLLESGGGLVQPGGSLRLSCAASGFTFSSYAMTWVRQAPGKGLEWVSAISISGGSTFYADSVKGRFTISRDNSKNTLYLQMNSLRAEDTAVYYCRGYSGYVYDAFDFWGQGTMVTVSS
VL: DIQMTQSPSSLSASVGDRVTITCRASQGISNWLAWYQQKPEKAPKSLIYAASSLQSGVPSRFSGSGSGTDFTLTISSLQPEDFATYYCQQYNSYPLTFGGGTKVEIK
modifications: vc-MMAE conjugate; homo sapiens
competition with Gas6 for binding to AXL (AXL): lack of competition
growth of PAXF1657 tumors compared to the control group (PAXF1657 tumors; 2 mg/kg i.v., day 0): significantly reduced the growth
anti-tumor activity on PAXF1657 tumors (PAXF1657 tumors; 4 mg/kg i.v., day 0): induced tumor regression
average tumor size versus isotype control IgG1-b12 (PAXF1657 tumors; day 14, 2 mg/kg or 4 mg/kg, p<0.001 Tukey's multiple comparison test): significantly smaller
anti-tumor activity in the PAXF1657 model (PAXF1657 tumors; dose not given): induced dose-dependent antitumor activity
complete tumor reduction ([1]; 1 mg/kg single i.p.): in some mice within these groups to complete tumor reduction
tumor volume versus control IgG1-b12 ([1]; day 30, One Way ANOVA (Dunnett's), 1 mg/kg single i.p.): highly significant difference
anti-tumor activity in established SC LCLC-103H tumors ([1]; single i.p. injection 1 mg/kg, SCID mice): induced tumor regression
EC50 (LCLC-103H cells): 0.012 µg/mL
anti-tumor activity in the LCLC-103H xenograft model (LCLC-103H tumors): induced tumor regression
anti-tumor activity on A431 tumors (A431 tumors): induced growth inhibition
EC50 Mean (MDA-MB231 cells): 0.012 µg/mL
pharmacokinetic properties, unconjugated antibody (study 3) versus ADC (study 2) [2]: similar
EC50 Mean (A431 cells): 0.070 µg/mL
